The values below come from patent US20190119377A1.

Assay [1] has as its target CD16 on CD16-transfected NFAT-bla Jurkat cells (UniProt P08637). In words: competition flow cytometry; displacement of AF488-labelled human IgG1 (25 nM) from CD16-transfected NFAT-bla Jurkat cells.
Assay [2] deals with human FcRn on FcRn-transfected 293FS cells (293FS+FcRn+β2m (clone #2)) (human) (UniProt P55899). In words: competition flow cytometry; displacement of AF488-labelled IgG1 (3.33 nM) from human FcRn-transfected 293FS cells, pH 5.5.
Chain of UniProt P55899 (P55899 24-365, chain 1 of 2): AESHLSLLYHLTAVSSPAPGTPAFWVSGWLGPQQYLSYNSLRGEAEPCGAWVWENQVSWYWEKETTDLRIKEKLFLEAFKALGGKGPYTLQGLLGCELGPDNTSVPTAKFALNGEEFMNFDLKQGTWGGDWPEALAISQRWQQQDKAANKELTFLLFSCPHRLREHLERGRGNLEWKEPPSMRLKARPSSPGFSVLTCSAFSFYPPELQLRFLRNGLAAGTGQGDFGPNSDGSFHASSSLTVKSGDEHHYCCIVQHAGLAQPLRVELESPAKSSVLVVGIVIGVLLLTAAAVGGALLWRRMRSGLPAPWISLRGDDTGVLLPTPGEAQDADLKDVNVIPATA
Chain of UniProt P55899 (P61769 21-119, chain 2 of 2, further chain): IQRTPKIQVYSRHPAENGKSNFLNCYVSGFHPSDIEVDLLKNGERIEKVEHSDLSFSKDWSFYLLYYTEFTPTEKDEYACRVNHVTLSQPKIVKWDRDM

Chain of UniProt P08637 (P08637 17-254 limits assumed): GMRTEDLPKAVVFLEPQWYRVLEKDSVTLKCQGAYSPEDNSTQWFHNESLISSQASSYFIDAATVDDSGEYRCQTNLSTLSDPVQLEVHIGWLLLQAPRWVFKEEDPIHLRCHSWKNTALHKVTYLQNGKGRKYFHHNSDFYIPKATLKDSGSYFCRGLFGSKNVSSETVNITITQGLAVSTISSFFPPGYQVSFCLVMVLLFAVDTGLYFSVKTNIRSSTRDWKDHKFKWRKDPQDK

Take human IgG1 (antibody): the Ki in assay [1] is 225 nM; in assay [2], 200 nM.
